Results from patent US20160369009A1 (published 2016).

Assays:
[1] = target: T1, human kallikrein-2 (hK2) (human, UniProt P20151 25-261); test: SPR, Biacore 3000, hK2 on CM4 chip, mean of channels fc2 and fc3
T1 construct: The mature protein is said to be underlined, but the underlining is not recoverable from the text; In the assay hK2 was amine-coupled to a CM4 chip; also called human glandular kallikrein 2; antigen hK2
Experimental: (§1) All binding experiments were performed on CM4 chip on a Biacore 3000 instrument. The chip and all the reagents needed for activation, immobilization, deactivation, binding and regeneration were purchased from GE Healthcare and used according to the guidelines from the manufacturer.
(§2) The dissociation phase data was fitted and the dissociation rate constants (koff) were estimated (see Table 2).

[2] = target: T1, human kallikrein-2 (hK2); test: SPR, Biacore 3000, hK2 amine-coupled on CM4 chip, channel fc2, 50 nM antibody, 480 min dissociation
Experimental: as §1, §2

[3] = target: T1, human kallikrein-2 (hK2); test: SPR, Biacore 3000, hK2 on CM4 chip, antibody 6.25-100 nM, mean of 18/18 fitted experiments
Experimental: as §1
(§3) In order to estimate the association rate constants, the dissociation rate constants (Table 2) were used in the fitted equations.
(§4) All fitted data was used in order to calculate an average value of the association rate constant and the standard deviation for each antibody (see Table 3).

[4] = target: T1, human kallikrein-2 (hK2); test: SPR, Biacore 3000, hK2 on CM4 chip, mean KD from kon and koff
Experimental: as §1

[5] = target: T1, human kallikrein-2 (hK2); test: SPR, Biacore 3000, hK2 amine-coupled on CM4 chip, channel fc3, 50 nM antibody, 480 min dissociation
Experimental: as §1, §2

[6] = target: T1, human kallikrein-2 (hK2); test: SPR, Biacore 3000, hK2 on CM4 chip, antibody 6.25-100 nM, mean of 15/18 fitted experiments
Experimental: as §1, §3, §4

[7] = target: T1, human kallikrein-2 (hK2); test: SPR, Biacore 3000, hK2 on CM4 chip, antibody 6.25-100 nM, mean of 17/18 fitted experiments
Experimental: as §1, §3, §4

T1 sequence (P20151 25-261 limits assumed): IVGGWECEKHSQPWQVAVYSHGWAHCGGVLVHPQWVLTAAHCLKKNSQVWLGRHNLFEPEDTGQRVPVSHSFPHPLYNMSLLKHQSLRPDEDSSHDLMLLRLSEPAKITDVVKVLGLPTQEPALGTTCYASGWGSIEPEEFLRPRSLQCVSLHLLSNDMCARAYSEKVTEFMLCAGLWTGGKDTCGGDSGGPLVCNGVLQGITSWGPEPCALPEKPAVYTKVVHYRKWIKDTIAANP

B1: murine 11B6 antibody (m11B6), parent murine anti-hK2 monoclonal antibody (antibody, mouse IgG1, kappa, V domains shown)
VH: DVQLQESGPGLVKPSQSLSLTCTVTGNSITSDYAWNWIRQFPGNRLEWMGYISYSGSTTYSPSLKSRFSITRDTSKNQFFLQLNSVTPEDTATYFCATGYYYGSGFWGQGTLVTVSS
VL: DIVLTQSPASLAVSLGQRATISCRASESVEYFGTSLMHWYRQKPGQPPKLLIYAASNVESGVPARFSGSGSGTDFSLNIQPVEEDDFSMYFCQQTRKVPYTFGGGTKLEIKR
notes: Whole murine IgG obtained from the University of Turku; also called mAb 11B6; ml 1B6
Q: Which results are given for B1?
A: koff [1]: 3.4e-05 s⁻¹; koff [2]: 1.9e-05 s⁻¹; kon [3]: 248000 M⁻¹ s⁻¹; Kd [4]: 190 pM; koff [5]: 4.9e-05 s⁻¹

B2: h11B6-DFO (humanised 11B6 conjugated with deferoxamine) (antibody, human IgG1, kappa, V domains shown)
VH: QVQLQESGPGLVKPSDTLSLTCAVSGNSITSDYAWNWIRQPPGKGLEWIGYISYSGSTTYNPSLKSRVTMSRDTSKNQFSLKLSSVTAVDTAVYYCATGYYYGSGFWGQGTLVTVSS
VL: DIVLTQSPDSLAVSLGERATINCKASESVEYFGTSLMHWYQQKPGQPPKLLIYAASNRESGVPDRFSGSGSGTDFTLTISSLQAEDVAVYYCQQTRKVPYTFGQGTKLEIKR
modifications: DFO (deferoxamine) chelator coupled; residues and chain not stated
notes: This is the h11B6 IgG1/kappa carrying DFO; also called h1166-DFO; DFO-h11B6
Q: Which koff [1] does the source give for B2 here?
A: 5.7e-05 s⁻¹

Q: And the koff [2]?
A: 5.8e-05 s⁻¹

Q: What about the kon [3] of the same binder?
A: 111000 M⁻¹ s⁻¹

Q: And the Kd [4]?
A: 540 pM

Q: And the koff [5]?
A: 5.5e-05 s⁻¹

B3: humanised 11B6 antibody (h11B6), IgG1/kappa (antibody, V domains shown)
VH: QVQLQESGPGLVKPSDTLSLTCAVSGNSITSDYAWNWIRQPPGKGLEWIGYISYSGSTTYNPSLKSRVTMSRDTSKNQFSLKLSSVTAVDTAVYYCATGYYYGSGFWGQGTLVTVSS
VL: DIVLTQSPDSLAVSLGERATINCKASESVEYFGTSLMHWYQQKPGQPPKLLIYAASNRESGVPDRFSGSGSGTDFTLTISSLQAEDVAVYYCQQTRKVPYTFGQGTKLEIKR
notes: Expressed transiently in HEK293 cells; also called h1186
Q: What does the source list for B3?
A: koff [1]: 6.7e-05 s⁻¹; kon [6]: 117000 M⁻¹ s⁻¹; koff [2]: 6.4e-05 s⁻¹; Kd [4]: 650 pM; koff [5]: 6.9e-05 s⁻¹

B4: h11B6-DTPA (humanised 11B6 conjugated with DTPA chelator) (antibody, V domains shown)
VH: QVQLQESGPGLVKPSDTLSLTCAVSGNSITSDYAWNWIRQPPGKGLEWIGYISYSGSTTYNPSLKSRVTMSRDTSKNQFSLKLSSVTAVDTAVYYCATGYYYGSGFWGQGTLVTVSS
VL: DIVLTQSPDSLAVSLGERATINCKASESVEYFGTSLMHWYQQKPGQPPKLLIYAASNRESGVPDRFSGSGSGTDFTLTISSLQAEDVAVYYCQQTRKVPYTFGQGTKLEIKR
modifications: DTPA chelator coupled; residues and chain not stated
notes: This is the h11B6 IgG1/kappa carrying a chelator; also called h1166-DTPA; H1166-DTPA
Q: What does the source list for B4?
A: koff [1]: 0.000127 s⁻¹; koff [2]: 6.3e-05 s⁻¹; kon [7]: 182000 M⁻¹ s⁻¹; Kd [4]: 930 pM; koff [5]: 0.000191 s⁻¹
